Values quoted from earlier work as cited in article PMC4404502.

Biological target: Asp11 (position 11, …)
Assay: fluorescence
Conditions: membrane-inserted helix

KKGLLLLLLLDLWLLLLLLLLLKKA [pL(D11) poly-Leu transmembrane model peptide (synthetic construct)]
pKa: 8.7
